Assay results from patent US20260347504 (published 2026).

Assays:
human RAGE ECD = human RAGE ECD (human, UniProt Q15109); assay: SPR, RAGE immobilized
human TLR4 ECD = human TLR4 ECD (human, UniProt O00206); assay: SPR, TLR4 immobilized
human TLR4 ECD, sequence (O00206 1-631): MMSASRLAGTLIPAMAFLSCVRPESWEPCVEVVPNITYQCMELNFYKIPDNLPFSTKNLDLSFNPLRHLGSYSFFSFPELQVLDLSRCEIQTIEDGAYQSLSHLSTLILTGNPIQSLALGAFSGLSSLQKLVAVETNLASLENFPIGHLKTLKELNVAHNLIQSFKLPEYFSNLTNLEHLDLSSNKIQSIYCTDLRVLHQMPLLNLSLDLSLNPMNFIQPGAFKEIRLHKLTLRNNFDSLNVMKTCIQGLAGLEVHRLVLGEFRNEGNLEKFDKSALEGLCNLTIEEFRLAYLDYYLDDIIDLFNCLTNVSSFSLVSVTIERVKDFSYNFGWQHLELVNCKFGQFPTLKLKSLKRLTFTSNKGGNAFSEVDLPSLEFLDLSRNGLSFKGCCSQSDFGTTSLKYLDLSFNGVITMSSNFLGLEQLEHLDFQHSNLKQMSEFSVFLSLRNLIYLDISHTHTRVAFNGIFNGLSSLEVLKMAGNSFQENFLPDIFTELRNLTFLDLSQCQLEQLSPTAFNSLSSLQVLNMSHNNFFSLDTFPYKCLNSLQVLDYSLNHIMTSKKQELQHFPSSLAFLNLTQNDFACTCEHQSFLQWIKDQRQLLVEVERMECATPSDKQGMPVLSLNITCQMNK

human RAGE ECD, sequence (Q15109 1-344): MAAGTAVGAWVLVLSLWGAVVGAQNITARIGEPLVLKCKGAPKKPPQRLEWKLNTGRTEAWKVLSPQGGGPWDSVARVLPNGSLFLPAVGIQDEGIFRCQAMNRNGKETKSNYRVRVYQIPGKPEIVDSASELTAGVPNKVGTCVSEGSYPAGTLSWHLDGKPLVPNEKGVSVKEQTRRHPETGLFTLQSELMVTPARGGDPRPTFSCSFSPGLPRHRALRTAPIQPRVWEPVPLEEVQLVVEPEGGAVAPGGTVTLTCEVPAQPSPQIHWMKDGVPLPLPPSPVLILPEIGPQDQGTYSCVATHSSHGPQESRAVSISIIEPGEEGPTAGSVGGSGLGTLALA

- Kd (human RAGE ECD): 3 nM
- Kd (human TLR4 ECD): 64.4 nM
B1: human pCTS-L (protein)
chain: ATLTFDHSLEAQWTKWKAMHNRLYGMNEEGWRRAVWEKNMKMIELHNQEYREGKHSFTMAMNAFGDMTSEEFRQVMNGFQNRKPRKGKVFQEPLFYEAPRSVDWREKGYVTPVKNQGQCGSCWAFSATGALEGQMFRKTGRLISLSEQNLVDCSGPQGNEGCNGGLMDYAFQYVQDNGGLDSEESYPYEATEESCKYNPKYSVANDTGFVDIPKQEKALMKAVATVGPISVAIDAGHESFLFYKEGIYFEPDCSSEDMDHGVLVVGYGFESTESDNNKYWLVKNSWGEEWGMGGYVKMAKDRRNHCGIASAASYPTV
